Measured values from patent publication US20190175609A1 (Novartis, published 2019).

Experiments:
[1] = molecular target: T1, Programmed Death 1 (PD-1) (UniProt Q15116 25-167, limits assumed); assay: FACS ligand blocking: mAb titrated, signal of ligand-Ig bound to PD-1; legend paragraph 46 names PD-L1-Ig and PD-L2-Ig as blocked ligands for FIG. 8A; cells not named
[2] = molecular target: T2, PD-1 on PD-1-expressing 300.19 cells (UniProt Q15116 25-288, limits assumed); assay: rank among the 16 humanized clones in competition binding against labeled murine mAb BAP049, 1st exp. (FIGURE 6A)
T2 construct: whole, on cells

[3] = molecular target: T2, PD-1 on PD-1-expressing 300.19 cells; assay: rank among the 16 humanized clones in competition binding against labeled murine mAb BAP049, 2nd exp. (FIGURE 6B)
[4] = molecular target: T1, Programmed Death 1 (PD-1); assay: rank among the 16 humanized clones by FACS data (order agrees with the 200 ng/ml bars of FIGURE 4, 1 = highest)

T2 sequence (Q15116 25-288 limits assumed): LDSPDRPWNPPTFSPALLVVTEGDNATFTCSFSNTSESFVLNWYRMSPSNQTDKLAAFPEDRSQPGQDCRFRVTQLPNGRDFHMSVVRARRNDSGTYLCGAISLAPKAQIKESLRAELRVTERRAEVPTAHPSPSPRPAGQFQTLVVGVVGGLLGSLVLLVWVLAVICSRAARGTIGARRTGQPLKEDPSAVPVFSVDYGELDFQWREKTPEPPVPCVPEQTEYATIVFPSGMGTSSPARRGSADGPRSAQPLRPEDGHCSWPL
T1 sequence (Q15116 25-167 limits assumed): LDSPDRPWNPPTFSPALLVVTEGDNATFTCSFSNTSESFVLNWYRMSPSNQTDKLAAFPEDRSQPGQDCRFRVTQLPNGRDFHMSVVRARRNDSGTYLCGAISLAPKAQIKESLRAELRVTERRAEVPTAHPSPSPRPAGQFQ

Binder	IC50 (read off the curve) [1]	Competition Binding 1st exp. [2]	Competition Binding 2nd exp. [3]	Ranking FACS data [4]
Chi mAb (Tyr) (antibody, human IgG4 S228P, kappa, V domains shown, also called BAP049-chi-Y; Chi (Tyr)) VH: QVQLQQSGSELVRPGASVKLSCKASGYTFTTYWMHWVRQRPGQGLEWIGNIYPGTGGSNFDEKFKNRTSLTVDTSSTTAYMHLASLTSEDSAVYYCTRWTTGTGAYWGQGTTVTVSS VL: DIVMTQSPSSLTVTAGEKVTMSCKSSQSLLDSGNQKNFLTWYQQKPGQPPKLLIFWASTRESGVPDRFTGSGSVTDFTLTISSVQAEDLAVYYCQNDYSYPYTFGQGTKVEIKR	~0.8 µg/mL			
murine anti-PD-1 mAb BAP049 (antibody, V domains shown, the murine constant regions are not described; also called Mu mAb; murine mAb BAP049) VH: QVQLQQSGSELVRPGASVKLSCKASGYTFTTYWMHWVRQRPGQGLEWIGNIYPGTGGSNFDEKFKNRTSLTVDTSSTTAYMHLASLTSEDSAVYYCTRWTTGTGAYWGQGTLVTVSA VL: DIVMTQSPSSLTVTAGEKVTMSCKSSQSLLDSGNQKNFLTWYQQKPGQPPKLLIFWASTRESGVPDRFTGSGSVTDFTLTISSVQAEDLAVYYCQNDYSYPCTFGGGTKLEIK	~0.6 µg/mL			
BAP049-hum12 (antibody, human IgG4 S228P, kappa, V domains shown, also called Clone No. 12) VH: EVQLVQSGAEVKKPGESLRISCKGSGYTFTTYWMHWVRQATGQGLEWMGNIYPGTGGSNFDEKFKNRVTITADKSTSTAYMELSSLRSEDTAVYYCTRWTTGTGAYWGQGTTVTVSS VL: DIQMTQSPSSLSASVGDRVTITCKSSQSLLDSGNQKNFLTWYLQKPGQSPQLLIYWASTRESGVPSRFSGSGSGTDFTFTISSLEAEDAATYYCQNDYSYPYTFGQGTKVEIKR		8	16	3
BAP049-hum02 (antibody, human IgG4 S228P, kappa, V domains shown, also called Clone No. 2) VH: EVQLVQSGAEVKKPGESLRISCKGSGYTFTTYWMHWVRQATGQGLEWMGNIYPGTGGSNFDEKFKNRVTITADKSTSTAYMELSSLRSEDTAVYYCTRWTTGTGAYWGQGTTVTVSS VL: DIQMTQSPSSLSASVGDRVTITCKSSQSLLDSGNQKNFLTWYQQKPGQAPRLLIYWASTRESGIPPRFSGSGYGTDFTLTINNIESEDAAYYFCQNDYSYPYTFGQGTKVEIKR		3	2	6
BAP049-hum13 (antibody, human IgG4 S228P, kappa, also called Clone No. 13) heavy chain: not shown light chain: DVVMTQSPLSLPVTLGQPASISCKSSQSLLDSGNQKNFLTWYQQKPGKAPKLLIYWASTRESGVPSRFSGSGSGTDFTFTISSLEAEDAATYYCQNDYSYPYTFGQGTKVEIKRTVAAPSVFIFPPSDEQLKSGTASVVCLLNNFYPREAKVQWKVDNALQSGNSQESVTEQDSKDSTYSLSSTLTLSKADYEKHKVYACEVTHQGLSSPVTKSFNRGEC		1	1	6
BAP049-hum10 (antibody, human IgG4 S228P, kappa, Humanized mAb) heavy: not shown light: EIVLTQSPATLSLSPGERATLSCKSSQSLLDSGNQKNFLTWYQQKPGQAPRLLIYWASTRESGVPSRFSGSGSGTDFTFTISSLEAEDAATYYCQNDYSYPYTFGQGTKVEIKRTVAAPSVFIFPPSDEQLKSGTASVVCLLNNFYPREAKVQWKVDNALQSGNSQESVTEQDSKDSTYSLSSTLTLSKADYEKHKVYACEVTHQGLSSPVTKSFNRGEC	~1 µg/mL	6	> 4	7
BAP049-hum11 (antibody, human IgG4 S228P, kappa, Humanized mAb) heavy: not shown light: EIVLTQSPATLSLSPGERATLSCKSSQSLLDSGNQKNFLTWYQQKPGQAPRLLIYWASTRESGVPSRFSGSGSGTDFTFTISSLEAEDAATYYCQNDYSYPYTFGQGTKVEIKRTVAAPSVFIFPPSDEQLKSGTASVVCLLNNFYPREAKVQWKVDNALQSGNSQESVTEQDSKDSTYSLSSTLTLSKADYEKHKVYACEVTHQGLSSPVTKSFNRGEC		4	> 4	6
BAP049-hum08 (antibody, human IgG4 S228P, kappa, Humanized mAb) heavy: not shown light: EIVLTQSPDFQSVTPKEKVTITCKSSQSLLDSGNQKNFLTWYQQKPGQAPRLLIYWASTRESGVPSRFSGSGSGTDFTFTISSLEAEDAATYYCQNDYSYPYTFGQGTKVEIKRTVAAPSVFIFPPSDEQLKSGTASVVCLLNNFYPREAKVQWKVDNALQSGNSQESVTEQDSKDSTYSLSSTLTLSKADYEKHKVYACEVTHQGLSSPVTKSFNRGEC		7	4	7
BAP049-hum15 (antibody, human IgG4 S228P, kappa, also called Clone No. 15) heavy chain: not shown light chain: EIVLTQSPDFQSVTPKEKVTITCKSSQSLLDSGNQKNFLTWYQQKPGQAPRLLIYWASTRESGVPSRFSGSGSGTDFTFTISSLEAEDAATYYCQNDYSYPYTFGQGTKVEIKRTVAAPSVFIFPPSDEQLKSGTASVVCLLNNFYPREAKVQWKVDNALQSGNSQESVTEQDSKDSTYSLSSTLTLSKADYEKHKVYACEVTHQGLSSPVTKSFNRGEC		7	15	6
BAP049-hum07 (antibody, human IgG4 S228P, kappa, also called Clone No. 7) heavy chain: not shown light chain: EIVLTQSPATLSLSPGERATLSCKSSQSLLDSGNQKNFLTWYQQKPGKAPKLLIYWASTRESGVPSRFSGSGSGTDFTFTISSLEAEDAATYYCQNDYSYPYTFGQGTKVEIKRTVAAPSVFIFPPSDEQLKSGTASVVCLLNNFYPREAKVQWKVDNALQSGNSQESVTEQDSKDSTYSLSSTLTLSKADYEKHKVYACEVTHQGLSSPVTKSFNRGEC		7	> 4	4
BAP049-hum01 (antibody, human IgG4 S228P, kappa, V domains shown, Humanized mAb) VH: EVQLVQSGAEVKKPGESLRISCKGSGYTFTTYWMHWVRQATGQGLEWMGNIYPGTGGSNFDEKFKNRVTITADKSTSTAYMELSSLRSEDTAVYYCTRWTTGTGAYWGQGTTVTVSS VL: EIVLTQSPATLSLSPGERATLSCKSSQSLLDSGNQKNFLTWYQQKPGQAPRLLIYWASTRESGVPSRFSGSGSGTEFTLTISSLQPDDFATYYCQNDYSYPYTFGQGTKVEIKR	~1 µg/mL	7	2	2
BAP049-hum09 (antibody, human IgG4 S228P, kappa, Humanized mAb) heavy: not shown light: EIVLTQSPDFQSVTPKEKVTITCKSSQSLLDSGNQKNFLTWYQQKPGQAPRLLIYWASTRESGVPSRFSGSGSGTDFTFTISSLEAEDAATYYCQNDYSYPYTFGQGTKVEIKRTVAAPSVFIFPPSDEQLKSGTASVVCLLNNFYPREAKVQWKVDNALQSGNSQESVTEQDSKDSTYSLSSTLTLSKADYEKHKVYACEVTHQGLSSPVTKSFNRGEC		2	4	7
BAP049-hum14 (antibody, human IgG4 S228P, kappa, also called Clone No. 14) heavy chain: not shown light chain: EIVLTQSPATLSLSPGERATLSCKSSQSLLDSGNQKNFLTWYQQKPGQAPRLLIYWASTRESGVPSRFSGSGSGTDFTFTISSLEAEDAATYYCQNDYSYPYTFGQGTKVEIKRTVAAPSVFIFPPSDEQLKSGTASVVCLLNNFYPREAKVQWKVDNALQSGNSQESVTEQDSKDSTYSLSSTLTLSKADYEKHKVYACEVTHQGLSSPVTKSFNRGEC		7	15	16
BAP049-hum05 (antibody, human IgG4 S228P, kappa, V domains shown, Humanized mAb) VH: EVQLVQSGAEVKKPGESLRISCKGSGYTFTTYWMHWVRQATGQGLEWMGNIYPGTGGSNFDEKFKNRVTITADKSTSTAYMELSSLRSEDTAVYYCTRWTTGTGAYWGQGTTVTVSS VL: EIVLTQSPATLSLSPGERATLSCKSSQSLLDSGNQKNFLTWYQQKPGKAPKLLIYWASTRESGVPSRFSGSGSGTDFTFTISSLQPEDIATYYCQNDYSYPYTFGQGTKVEIKR	~1 µg/mL	5	> 4	5
BAP049-hum06 (antibody, human IgG4 S228P, kappa, also called Clone No. 6) heavy chain: not shown light chain: DIVMTQTPLSLPVTPGEPASISCKSSQSLLDSGNQKNFLTWYQQKPGQAPRLLIYWASTRESGVPSRFSGSGSGTDFTFTISSLEAEDAATYYCQNDYSYPYTFGQGTKVEIKRTVAAPSVFIFPPSDEQLKSGTASVVCLLNNFYPREAKVQWKVDNALQSGNSQESVTEQDSKDSTYSLSSTLTLSKADYEKHKVYACEVTHQGLSSPVTKSFNRGEC		7	3	1
BAP049-hum04 (antibody, human IgG4 S228P, kappa, V domains shown, also called Clone No. 4) VH: EVQLVQSGAEVKKPGESLRISCKGSGYTFTTYWMHWIRQSPSRGLEWLGNIYPGTGGSNFDEKFKNRFTISRDNSKNTLYLQMNSLRAEDTAVYYCTRWTTGTGAYWGQGTTVTVSS VL: EIVLTQSPATLSLSPGERATLSCKSSQSLLDSGNQKNFLTWYQQKPGKAPKLLIYWASTRESGVPSRFSGSGSGTDFTFTISSLQPEDIATYYCQNDYSYPYTFGQGTKVEIKR		15	15	14
BAP049-hum16 (antibody, human IgG4 S228P, kappa, V domains shown, also called Clone No. 16) VH: EVQLVQSGAEVKKPGESLRISCKGSGYTFTTYWMHWVRQAPGQGLEWMGNIYPGTGGSNFDEKFKNRFTISRDNSKNTLYLQMNSLRAEDTAVYYCTRWTTGTGAYWGQGTTVTVSS VL: EIVLTQSPDFQSVTPKEKVTITCKSSQSLLDSGNQKNFLTWYQQKPGQAPRLLIYWASTRESGVPSRFSGSGSGTDFTFTISSLEAEDAATYYCQNDYSYPYTFGQGTKVEIKR		16	15	15
BAP049-hum03 (antibody, human IgG4 S228P, kappa, V domains shown, also called Clone No. 3) VH: EVQLVQSGAEVKKPGESLRISCKGSGYTFTTYWMHWIRQSPSRGLEWLGNIYPGTGGSNFDEKFKNRFTISRDNSKNTLYLQMNSLRAEDTAVYYCTRWTTGTGAYWGQGTTVTVSS VL: DIQMTQSPSSLSASVGDRVTITCKSSQSLLDSGNQKNFLTWYQQKPGQAPRLLIYWASTRESGIPPRFSGSGYGTDFTLTINNIESEDAAYYFCQNDYSYPYTFGQGTKVEIKR		8	14	7
